Experimental findings from publication PMC4747346, “Interaction of RECQ4 and MCM10 is important for efficient DNA replication origin firing in human cells” (Oncotarget, 2015) are described below.

In the assay the target is T1, HIS-RECQ4 (full length, recombinant) (human, UniProt O94761 1-1208).
T1 construct: RECQ4; full length construct, a gift from Dr Yilun Liu; the construct itself is not described; also called H-R4; source: E. coli Rosetta pLysS, purified (HQ sepharose flow-through, PEI, HiTrap HP with imidazole, FLAG M2 beads)
T1 sequence (looked up): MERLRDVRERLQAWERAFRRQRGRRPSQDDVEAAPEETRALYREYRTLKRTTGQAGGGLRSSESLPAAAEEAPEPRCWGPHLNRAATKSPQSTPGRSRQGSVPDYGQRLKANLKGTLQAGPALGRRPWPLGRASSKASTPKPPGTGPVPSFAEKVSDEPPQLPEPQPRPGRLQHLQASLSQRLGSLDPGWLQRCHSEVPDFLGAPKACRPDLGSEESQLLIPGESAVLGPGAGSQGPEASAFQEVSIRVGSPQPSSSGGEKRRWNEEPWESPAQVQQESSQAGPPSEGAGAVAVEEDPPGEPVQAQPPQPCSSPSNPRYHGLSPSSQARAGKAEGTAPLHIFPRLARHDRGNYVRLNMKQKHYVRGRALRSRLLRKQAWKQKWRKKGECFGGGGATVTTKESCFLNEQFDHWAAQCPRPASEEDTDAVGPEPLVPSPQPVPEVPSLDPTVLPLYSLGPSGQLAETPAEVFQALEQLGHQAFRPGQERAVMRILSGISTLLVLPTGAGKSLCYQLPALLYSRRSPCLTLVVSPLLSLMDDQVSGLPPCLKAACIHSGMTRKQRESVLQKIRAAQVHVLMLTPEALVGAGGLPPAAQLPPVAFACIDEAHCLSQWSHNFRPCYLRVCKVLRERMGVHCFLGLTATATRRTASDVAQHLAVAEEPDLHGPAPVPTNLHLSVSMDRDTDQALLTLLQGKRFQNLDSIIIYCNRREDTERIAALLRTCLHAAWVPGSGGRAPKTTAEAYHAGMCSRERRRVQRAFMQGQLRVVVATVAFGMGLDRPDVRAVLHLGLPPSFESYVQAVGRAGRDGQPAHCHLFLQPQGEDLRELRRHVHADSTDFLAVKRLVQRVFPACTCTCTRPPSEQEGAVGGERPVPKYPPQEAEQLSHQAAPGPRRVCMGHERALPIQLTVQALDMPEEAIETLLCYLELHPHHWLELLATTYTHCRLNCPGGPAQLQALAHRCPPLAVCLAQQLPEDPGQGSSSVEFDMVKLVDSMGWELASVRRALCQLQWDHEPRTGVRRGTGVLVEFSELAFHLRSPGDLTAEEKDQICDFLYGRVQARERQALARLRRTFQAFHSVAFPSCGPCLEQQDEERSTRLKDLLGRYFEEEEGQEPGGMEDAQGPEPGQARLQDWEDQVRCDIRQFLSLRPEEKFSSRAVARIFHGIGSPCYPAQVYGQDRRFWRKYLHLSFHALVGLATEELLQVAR
The experiment in a line: SPR; BIAcore T100, 25°C; GST-MCM10 amine-coupled to a CM3 chip (500 response units); RECQ4 as analyte at 1, 0.5, 0.25, 0.125, 0.06 and 0.03 μM; flow 30 and 60 μl/min; HBS buffer (10 mM HEPES pH 7.4, 150 mM NaCl, 0.5 mM TCEP, 0.05% Tween20); global fit to a two state model. Conditions: both partners purified. (In general: In SPR one partner is held on a chip, and binding of the other changes the refractive index at the surface.)

B1: GST-MCM10 (natural protein, human, UniProt Q7L590 1-875, looked up)
chain: MDEEEDNLSLLTALLEENESALDCNSEENNFLTRENGEPDAFDELFDADGDGESYTEEADDGETGETRDEKENLATLFGDMEDLTDEEEVPASQSTENRVLPAPAPRREKTNEELQEELRNLQEQMKALQEQLKVTTIKQTASPARLQKSPVEKSPRPPLKERRVQRIQESTCFSAELDVPALPRTKRVARTPKASPPDPKSSSSRMTSAPSQPLQTISRNKPSGITRGQIVGTPGSSGETTQPICVEAFSGLRLRRPRVSSTEMNKKMTGRKLIRLSQIKEKMAREKLEEIDWVTFGVILKKVTPQSVNSGKTFSIWKLNDLRDLTQCVSLFLFGEVHKALWKTEQGTVVGILNANPMKPKDGSEEVCLSIDHPQKVLIMGEALDLGTCKAKKKNGEPCTQTVNLRDCEYCQYHVQAQYKKLSAKRADLQSTFSGGRIPKKFARRGTSLKERLCQDGFYYGGVSSASYAASIAAAVAPKKKIQTTLSNLVVKGTNLIIQETRQKLGIPQKSLSCSEEFKELMDLPTCGARNLKQHLAKATASGIMGSPKPAIKSISASALLKQQKQRMLEMRRRKSEEIQKRFLQSSSEVESPAVPSSSRQPPAQPPRTGSEFPRLEGAPATMTPKLGRGVLEGDDVLFYDESPPPRPKLSALAEAKKLAAITKLRAKGQVLTKTNPNSIKKKQKDPQDILEVKERVEKNTMFSSQAEDELEPARKKRREQLAYLESEEFQKILKAKSKHTGILKEAEAEMQERYFEPLVKKEQMEEKMRNIREVKCRVVTCKTCAYTHFKLLETCVSEQHEYHWHDGVKRFFKCPCGNRSISLDRLPNKHCSNCGLYKWERDGMLKEKTGPKIGGETLLPRGEEHAKFLNSLK
notes: MCM10, human; construct pGEX-4T-1-MCM10, a gift from Dr. Yilun Liu; also called G-M10; pGEX-4T-1-MCM10; source: E. coli, purified on GSH beads (kept on the beads for pull-downs; eluted with reduced glutathione for the peptide array)
The term Kd denotes the constant that tells how readily two partners part at equilibrium. B1: the Kd amounted to 170 ± 200 nM.
